Results: US20250250355A1 (BIOSION, published 2025)

T1: mouse SIRPα-his (mouse, UniProt P97797 35-363, limits assumed)
T1 chain: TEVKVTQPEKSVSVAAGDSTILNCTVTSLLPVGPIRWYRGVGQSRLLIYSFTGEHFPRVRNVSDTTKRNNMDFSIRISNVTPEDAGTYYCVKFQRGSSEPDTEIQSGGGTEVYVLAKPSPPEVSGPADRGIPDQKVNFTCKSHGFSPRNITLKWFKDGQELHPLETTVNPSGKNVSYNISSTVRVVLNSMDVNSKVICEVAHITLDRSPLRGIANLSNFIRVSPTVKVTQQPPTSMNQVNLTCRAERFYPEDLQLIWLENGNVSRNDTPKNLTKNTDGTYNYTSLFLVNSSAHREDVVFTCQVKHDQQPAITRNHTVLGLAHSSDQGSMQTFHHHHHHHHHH

T2: cynomolgus SIRPα-his protein (cynomolgus)
T2 construct: also called Cyno SIRPα-his; monkey SIRPα
T2 chain: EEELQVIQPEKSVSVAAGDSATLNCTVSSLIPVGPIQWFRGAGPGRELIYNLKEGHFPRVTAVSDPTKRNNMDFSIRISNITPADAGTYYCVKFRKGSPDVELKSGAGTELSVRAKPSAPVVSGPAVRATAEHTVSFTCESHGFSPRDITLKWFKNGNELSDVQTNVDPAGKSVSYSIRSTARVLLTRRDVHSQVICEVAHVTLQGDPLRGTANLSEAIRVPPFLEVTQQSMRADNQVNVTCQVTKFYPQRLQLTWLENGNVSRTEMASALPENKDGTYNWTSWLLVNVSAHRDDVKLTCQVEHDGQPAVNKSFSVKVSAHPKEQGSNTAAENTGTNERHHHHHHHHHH

B1: E1F1B1C3-CDRV1-IgG1 (YTE) (antibody)
heavy: QVQLVQSGAEVKKPGASVKVSCKASGYTFTSNAMHWVRQVPGQGLEWMGWIKAGNAEIKYSQKFQGRVTITRDTSATTAYMELSSLRSEDTAVYYCARGDYYYYYMDVWGKGTTVTVSSASTKGPSVFPLAPSSKSTSGGTAALGCLVKDYFPEPVTVSWNSGALTSGVHTFPAVLQSSGLYSLSSVVTVPSSSLGTQTYICNVNHKPSNTKVDKKVEPKSCDKTHTCPPCPAPEAQGGPSVFLFPPKPKDTLYITREPEVTCVVVDVSHEDPEVKFNWYVDGVEVHNAKTKPREEQYNSTYRVVSVLTVLHQDWLNGKEYKCQVSNKALPAPIEKTISKAKGQPREPQVYTLPPSRDELTKNQVSLTCLVKGFYPSDIAVEWESNGQPENNYKTTPPVLDSDGSFFLYSKLTVDKSRWQQGNVFSCSVMHEALHNHYTQKSLSLSPG
light: DIQVTQSPSSLSASVGDRVTITCRASQSISDFLNWYQQKPGKAPKLLIHAASSLQAGVPSRFSGSGSGTDFSLTINSLQPEDFATYYCQQSYSTPLSFGGGTKVEIKRTVAAPSVFIFPPSDEQLKSGTASVVCLLNNFYPREAKVQWKVDNALQSGNSQESVTEQDSKDSTYSLSSTLTLSKADYEKHKVYACEVTHQGLSSPVTKSFNRGEC
B2: E1F1B1C3-CDRV1-IgG1 (antibody)
heavy: not shown
light: DIQVTQSPSSLSASVGDRVTITCRASQSISDFLNWYQQKPGKAPKLLIHAASSLQAGVPSRFSGSGSGTDFSLTINSLQPEDFATYYCQQSYSTPLSFGGGTKVEIKRTVAAPSVFIFPPSDEQLKSGTASVVCLLNNFYPREAKVQWKVDNALQSGNSQESVTEQDSKDSTYSLSSTLTLSKADYEKHKVYACEVTHQGLSSPVTKSFNRGEC
B3: E1H10B7C7 (antibody, V domains shown)
VH: QVQLVQSGAEVKKPGASVKVSCKASGYTFTSYAMQWVRQAPGQRLEWMGWIIAGNGDTKYSQNFQDRVTLTRDTSANTAYMDLSGLRSEDTAVYYCARGSGFSGYGYFDKWGQGTLVTVSS
VL: DIQMTQSPSSLSASVGDRVTITCRASHSISSYLNWYQQKPGKVPKLLIYASSSLQSGVPSRFSGNGSGTDFTLIISSLQPEDFATYYCQQSHSIPLTFGGGTKVEIK

Key:
[1] = target: T3, full length human SIRPβ on cell membranes (HEK293-SIRPβ cells; 293F cells expressing human SIRPβ) (human, UniProt O00241 30-398); assay: cell based binding FACS on 293F cells expressing human SIRPβ, MFI
T3 construct: whole, on cells; also called cell surface human SIRPβ
T3 sequence (O00241 30-398): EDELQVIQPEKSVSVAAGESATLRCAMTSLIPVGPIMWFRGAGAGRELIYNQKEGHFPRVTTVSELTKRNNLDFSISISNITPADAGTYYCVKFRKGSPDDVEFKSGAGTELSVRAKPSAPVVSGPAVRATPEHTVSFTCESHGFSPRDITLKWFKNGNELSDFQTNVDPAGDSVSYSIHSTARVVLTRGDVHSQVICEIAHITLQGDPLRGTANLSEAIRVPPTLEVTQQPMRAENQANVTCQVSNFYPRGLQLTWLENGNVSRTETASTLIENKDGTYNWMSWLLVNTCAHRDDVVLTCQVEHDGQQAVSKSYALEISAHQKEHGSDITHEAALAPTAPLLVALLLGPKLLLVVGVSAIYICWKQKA

[2] = target: human SIRPβ-his protein (human, UniProt O00241 30-371); assay: SPR (Biacore T200); antibody captured on Protein A chip, human SIRPβ-his flowed from 200 nM; 1:1 Langmuir fit
Sequence of human SIRPβ-his protein (O00241 other isoform, or with tags, fused parts or gaps limits assumed): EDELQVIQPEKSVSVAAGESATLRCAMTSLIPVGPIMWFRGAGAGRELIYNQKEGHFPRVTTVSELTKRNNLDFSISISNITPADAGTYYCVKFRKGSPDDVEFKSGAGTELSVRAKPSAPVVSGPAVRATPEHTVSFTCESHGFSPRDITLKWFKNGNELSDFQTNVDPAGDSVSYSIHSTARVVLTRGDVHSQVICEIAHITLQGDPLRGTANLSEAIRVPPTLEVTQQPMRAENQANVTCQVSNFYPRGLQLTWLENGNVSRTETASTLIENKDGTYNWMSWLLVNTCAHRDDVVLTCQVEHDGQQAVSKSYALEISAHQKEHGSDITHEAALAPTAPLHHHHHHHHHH

[3] = target: human SIRPα-isoform 2-his protein (human); assay: indirect ELISA on coated human SIRPα-isoform 2-his, OD(450-630)
Sequence of human SIRPα-isoform 2-his protein (human) (chain, as listed by the source limits assumed): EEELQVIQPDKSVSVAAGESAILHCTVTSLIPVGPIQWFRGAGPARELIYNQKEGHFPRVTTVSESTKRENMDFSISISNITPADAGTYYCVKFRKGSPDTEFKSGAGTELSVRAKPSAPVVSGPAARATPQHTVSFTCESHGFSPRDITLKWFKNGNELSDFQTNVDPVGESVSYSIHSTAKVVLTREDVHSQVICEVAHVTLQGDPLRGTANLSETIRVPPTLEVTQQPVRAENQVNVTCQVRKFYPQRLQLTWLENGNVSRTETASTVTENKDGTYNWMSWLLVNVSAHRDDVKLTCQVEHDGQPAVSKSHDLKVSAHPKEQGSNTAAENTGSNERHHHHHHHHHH

[4] = target: human SIRPα protein (soluble, used on 293F-CD47 cells) (human, UniProt P78324 31-370, limits assumed); assay: cell based blocking FACS on 293F-CD47 cells; soluble human SIRPα protein blocked from binding cell surface human CD47, MFI
Sequence of human SIRPα protein (soluble, used on 293F-CD47 cells) (P78324 31-370 limits assumed): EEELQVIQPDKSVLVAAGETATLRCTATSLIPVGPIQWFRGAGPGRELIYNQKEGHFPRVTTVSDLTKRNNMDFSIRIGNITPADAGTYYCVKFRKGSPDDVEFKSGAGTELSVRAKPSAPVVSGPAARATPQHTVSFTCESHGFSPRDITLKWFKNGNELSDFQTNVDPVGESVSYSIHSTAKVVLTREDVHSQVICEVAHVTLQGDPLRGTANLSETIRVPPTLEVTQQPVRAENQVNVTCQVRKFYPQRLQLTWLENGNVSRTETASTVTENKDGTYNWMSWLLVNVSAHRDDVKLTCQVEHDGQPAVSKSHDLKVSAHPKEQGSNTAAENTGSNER

[5] = target: T1, mouse SIRPα-his; assay: indirect ELISA on coated mouse SIRPα-his, OD(450-630)
[6] = target: T4, human FcRn protein (Cat #FCM-H5286, Acro biosystems Inc.) (human, UniProt P55899 24-297; P61769 21-119); assay: SPR (Biacore); human FcRn covalently linked to CM5 chip, antibody flowed from 62.5 µg/ml; pH 7.4
T4 sequence (P55899 24-297 limits assumed, chain 1 of 2): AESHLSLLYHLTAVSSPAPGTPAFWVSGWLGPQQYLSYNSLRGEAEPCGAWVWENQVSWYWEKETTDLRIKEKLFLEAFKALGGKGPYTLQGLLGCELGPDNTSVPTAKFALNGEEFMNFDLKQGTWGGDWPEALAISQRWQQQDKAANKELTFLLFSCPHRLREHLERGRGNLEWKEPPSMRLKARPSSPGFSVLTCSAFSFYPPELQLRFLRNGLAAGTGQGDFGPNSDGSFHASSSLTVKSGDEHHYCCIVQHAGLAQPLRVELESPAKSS
T4 sequence (P61769 21-119 limits assumed, chain 2 of 2): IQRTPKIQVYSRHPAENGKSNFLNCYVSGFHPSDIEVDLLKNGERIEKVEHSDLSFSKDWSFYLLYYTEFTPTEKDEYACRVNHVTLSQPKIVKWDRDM

[7] = target: T5, full length human SIRPα on cell membranes (HEK293-SIRPα cells; 293F-SIRPα cells) (human, UniProt P78324 31-504); assay: cell based blocking FACS on 293F-SIRPα cells; blocked ligand: human CD47 protein (CD47-Fc), MFI
T5 construct: whole, on cells; also called cell surface human SIRPα; cell surface SIRPα
T5 sequence (P78324 31-504): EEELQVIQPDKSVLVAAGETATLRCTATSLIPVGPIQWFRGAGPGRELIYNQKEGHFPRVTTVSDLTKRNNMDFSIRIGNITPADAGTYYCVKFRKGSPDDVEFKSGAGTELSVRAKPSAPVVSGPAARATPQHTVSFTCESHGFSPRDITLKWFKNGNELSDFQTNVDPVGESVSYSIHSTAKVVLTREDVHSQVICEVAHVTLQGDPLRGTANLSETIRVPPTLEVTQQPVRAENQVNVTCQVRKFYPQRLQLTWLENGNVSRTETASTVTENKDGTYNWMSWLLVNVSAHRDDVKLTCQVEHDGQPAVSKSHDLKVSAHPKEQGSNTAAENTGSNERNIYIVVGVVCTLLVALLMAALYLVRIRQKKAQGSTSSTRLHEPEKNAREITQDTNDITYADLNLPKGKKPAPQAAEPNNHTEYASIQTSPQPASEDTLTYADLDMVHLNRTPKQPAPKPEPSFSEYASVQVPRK

[8] = target: T2, cynomolgus SIRPα-his protein; assay: indirect ELISA on coated cynomolgus SIRPα-his, OD(450-630); curve flat at the baseline (see non_binding)
[9] = target: T5, full length human SIRPα on cell …; assay: cell based binding FACS on 293F cells expressing human SIRPα, MFI
[10] = target: T6, human SIRPα-his protein (human, UniProt P78324 31-370); assay: SPR (Biacore T200); antibody captured on Protein A chip, human SIRPα-his flowed from 200 nM; 1:1 Langmuir fit
T6 sequence (P78324 other isoform, or with tags, fused parts or gaps limits assumed): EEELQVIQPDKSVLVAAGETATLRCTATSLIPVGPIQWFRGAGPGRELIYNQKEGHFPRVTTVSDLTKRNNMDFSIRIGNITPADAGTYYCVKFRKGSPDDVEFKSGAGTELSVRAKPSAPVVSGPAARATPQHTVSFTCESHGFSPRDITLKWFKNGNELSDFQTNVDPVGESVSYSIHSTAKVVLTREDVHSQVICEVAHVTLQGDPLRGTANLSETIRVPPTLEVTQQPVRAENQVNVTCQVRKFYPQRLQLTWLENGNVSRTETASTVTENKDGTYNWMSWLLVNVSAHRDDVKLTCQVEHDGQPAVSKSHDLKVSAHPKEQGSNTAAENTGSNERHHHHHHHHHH

[11] = target: human SIRPα-V8-his protein (human, UniProt P78324 31-370, limits assumed); assay: indirect ELISA on coated human SIRPα-V8-his, OD(450-630)
Sequence of human SIRPα-V8-his protein (P78324 other isoform, or with tags, fused parts or gaps limits assumed): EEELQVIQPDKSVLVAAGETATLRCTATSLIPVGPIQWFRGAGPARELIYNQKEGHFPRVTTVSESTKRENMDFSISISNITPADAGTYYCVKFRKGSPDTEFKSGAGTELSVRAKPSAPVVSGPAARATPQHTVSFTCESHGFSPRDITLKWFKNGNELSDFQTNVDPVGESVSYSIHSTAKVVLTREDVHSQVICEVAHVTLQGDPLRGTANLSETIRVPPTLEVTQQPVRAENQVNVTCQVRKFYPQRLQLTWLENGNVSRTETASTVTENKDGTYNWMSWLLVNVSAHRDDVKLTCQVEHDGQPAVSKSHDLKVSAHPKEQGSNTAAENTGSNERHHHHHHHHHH

[12] = target: T4, human FcRn protein (Cat #FCM-H5286, …); assay: SPR (Biacore); human FcRn covalently linked to CM5 chip, antibody flowed from 62.5 µg/ml; pH 6.0
[13] = target: T7, full length human SIRPγ endogenously expressed on Jurkat cells (human, UniProt Q9P1W8 29-387); assay: cell based binding FACS on Jurkat cells (endogenous human SIRPγ), MFI; curve flat at MFI about 35 up to about 13 nM, rises to about 115 only at the last point (about 67 nM); paragraph 213 says no binding
T7 construct: whole, on cells; also called human SIRPγ expressed on Jurkat cells
T7 sequence (Q9P1W8 29-387): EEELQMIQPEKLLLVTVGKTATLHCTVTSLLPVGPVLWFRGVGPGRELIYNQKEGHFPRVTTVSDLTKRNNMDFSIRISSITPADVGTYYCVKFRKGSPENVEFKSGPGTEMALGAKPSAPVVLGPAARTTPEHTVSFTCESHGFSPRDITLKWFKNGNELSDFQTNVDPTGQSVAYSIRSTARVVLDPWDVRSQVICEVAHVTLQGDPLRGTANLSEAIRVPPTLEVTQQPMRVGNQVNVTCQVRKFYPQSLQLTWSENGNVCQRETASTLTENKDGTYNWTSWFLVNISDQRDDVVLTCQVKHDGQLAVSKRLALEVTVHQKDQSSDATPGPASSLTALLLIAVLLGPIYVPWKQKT

[14] = target: human SIRPγ-his protein (human, UniProt Q9P1W8 29-360, limits assumed); assay: SPR (Biacore T200), antibody captured on Protein A chip, human SIRPγ-his flowed
Sequence of human SIRPγ-his protein (Q9P1W8 29-360 limits assumed): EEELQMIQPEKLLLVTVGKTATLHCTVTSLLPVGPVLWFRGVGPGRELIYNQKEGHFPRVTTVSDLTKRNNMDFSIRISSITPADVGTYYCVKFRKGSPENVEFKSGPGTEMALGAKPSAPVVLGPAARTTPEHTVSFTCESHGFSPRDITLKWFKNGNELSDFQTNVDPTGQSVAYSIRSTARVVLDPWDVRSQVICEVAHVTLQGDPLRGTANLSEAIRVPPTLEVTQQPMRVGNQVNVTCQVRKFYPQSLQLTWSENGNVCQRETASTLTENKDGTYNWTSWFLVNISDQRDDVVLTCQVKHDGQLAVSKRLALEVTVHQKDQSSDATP

[15] = target: T7, full length human SIRPγ endogenously …; assay: cell based binding FACS on Jurkat cells (endogenous human SIRPγ), MFI; curve flat at MFI about 35 up to about 13 nM, rises to about 185 only at the last point (about 67 nM); paragraph 213 says no binding
[16] = target: T4, human FcRn protein (Cat #FCM-H5286, …); assay: SPR (Biacore); human FcRn covalently linked to CM5 chip, antibody flowed from 62.5 µg/ml; pH 6.0; pH 6.0
[17] = target: T7, full length human SIRPγ endogenously …; assay: cell based binding FACS on Jurkat cells (endogenous human SIRPγ), MFI; curve not separable in the scan; paragraph 186 says no binding
[18] = target: T3, full length human SIRPβ on cell …; assay: cell based binding FACS on HEK293-SIRPβ cells, MFI; curve not visible in the scan
[19] = target: T8, recombinant human SIRPα-Fc protein (human, biotin-labeled (sites not given)); assay: capture ELISA, antibody captured on anti-mouse IgG F(ab')2, biotin-labeled human SIRPα-Fc in solution, OD(450-630); curve not visible in the scan
T8 construct: also called biotin-labeled human SIRPα-Fc protein
T8 sequence (chain, as listed by the source limits assumed): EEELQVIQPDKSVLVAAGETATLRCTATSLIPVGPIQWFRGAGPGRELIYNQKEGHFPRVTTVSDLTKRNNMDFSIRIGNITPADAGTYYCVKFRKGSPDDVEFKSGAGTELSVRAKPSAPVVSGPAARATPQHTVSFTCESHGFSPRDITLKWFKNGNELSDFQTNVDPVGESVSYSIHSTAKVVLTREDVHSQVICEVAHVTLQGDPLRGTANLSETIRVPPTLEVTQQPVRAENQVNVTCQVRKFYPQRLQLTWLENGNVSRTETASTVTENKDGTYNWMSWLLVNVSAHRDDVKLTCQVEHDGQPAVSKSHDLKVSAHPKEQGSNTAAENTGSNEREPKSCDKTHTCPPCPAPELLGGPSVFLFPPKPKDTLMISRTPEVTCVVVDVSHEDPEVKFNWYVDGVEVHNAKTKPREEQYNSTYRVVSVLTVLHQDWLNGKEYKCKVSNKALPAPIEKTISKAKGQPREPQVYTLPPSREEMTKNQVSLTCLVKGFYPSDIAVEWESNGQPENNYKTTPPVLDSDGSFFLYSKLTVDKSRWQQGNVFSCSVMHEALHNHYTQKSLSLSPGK

[20] = target: T5, full length human SIRPα on cell …; assay: cell based binding FACS on HEK293-SIRPα cells, MFI; curve not visible in the scan
[21] = target: T6, human SIRPα-his protein; assay: competitive ELISA on coated human SIRPα-his; blocked ligand: biotin-labeled human CD47-his, OD(450-630); curve not visible in the scan
[22] = target: T2, cynomolgus SIRPα-his protein; assay: indirect ELISA on coated cynomolgus SIRPα-his, OD(450-630); curve not visible in the scan
[23] = target: T5, full length human SIRPα on cell …; assay: cell based blocking FACS on 293F-SIRPα cells; blocked ligand: biotin-labeled human CD47-Fc, MFI; curve only in faint traces
[24] = target: human SIRPα-isoform 2-his protein (human); assay: indirect ELISA on coated human SIRPα-isoform 2-his, OD(450-630); curve not visible in the scan

Row | Binder | EC50 [1] [nM] | Kd [2] [nM] | koff [2] [s⁻¹] | kon [2] [M⁻¹ s⁻¹] | EC50 [3] [nM] | IC50 [4] [nM] | binding result [5] | IC50 [7] [nM] | EC50 [8] [nM] | EC50 [9] [nM] | Kd [10] [nM] | koff [10] [s⁻¹] | kon [10] [M⁻¹ s⁻¹] | EC50 [11] [nM] | binding result [14] | further results
1 | B1 | 0.2 | 2.81 | 0.002 | 713000 | 0.106 | 0.264 | no binding (tested: ~67 nM) | 0.573 | 86.7 | 0.27 | 0.824 | 0.00105 | 1.28e+06 | 0.179 | no binding (tested: antigen starting at 200 nM) | Kd [6]: 651 nM; Kd [12]: 26.8 nM; EC50 [13]: ~38.6 nM
2 | B2 | 0.248 | 1.17 | 0.000907 | 773000 | 0.129 | 0.27 | no binding (tested: ~67 nM) | 0.488 | ~2930 | 0.27 | 0.344 | 0.000402 | 1.17e+06 | 0.148 | no binding (tested: antigen starting at 200 nM) | EC50 [15]: ~954 nM; Kd [16]: 56.7 nM
3 | B3 |  |  |  |  |  |  |  |  |  |  |  |  |  |  |  | EC50 [17]: 0.5 nM; EC50 [18]: 0.689 nM; EC50 [19]: 0.103 nM; EC50 [20]: 0.842 nM; IC50 [21]: 2.68 nM; EC50 [22]: 0.131 nM; IC50 [23]: 0.853 nM; EC50 [24]: 0.162 nM
